From US20220396632A1 (VERSEAU THERAPEUTICS, published 2022)

T1: Biotin sY48 PSGL-1(42-62) peptide (human, sulfotyrosine at Y48; C-terminal Lys-biotin)
T1 construct: also called sY48S
T1 peptide: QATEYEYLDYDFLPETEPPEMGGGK

T2: Biotin Y46,48,51(SO3) PSGL-1(42-62) peptide (human, sulfotyrosine at Y46, Y48 and Y51; C-terminal Lys-biotin)
T2 construct: also called fully sulfated N-terminal PSGL-1 peptide
T2 peptide: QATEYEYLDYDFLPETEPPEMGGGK

T3: Biotin sY51 PSGL-1(42-62) peptide (human, sulfotyrosine at Y51; C-terminal Lys-biotin)
T3 construct: also called Y51(SO3) PSGL-1(42-62)
T3 peptide: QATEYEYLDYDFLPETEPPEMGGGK

T4: Recombinant human PSGL-1(ECD)-hFc1 (R&D Systems, Cat. 3345-PS) (human, UniProt Q14242 42-305)
T4 construct: Bought; Gln42-Val295 counted on AAC50061; also called PSGL-1-Fc; PSGL-1-hFc1 chimera; not shown: human IgG1 Fc, Pro100-Lys330
T4 sequence: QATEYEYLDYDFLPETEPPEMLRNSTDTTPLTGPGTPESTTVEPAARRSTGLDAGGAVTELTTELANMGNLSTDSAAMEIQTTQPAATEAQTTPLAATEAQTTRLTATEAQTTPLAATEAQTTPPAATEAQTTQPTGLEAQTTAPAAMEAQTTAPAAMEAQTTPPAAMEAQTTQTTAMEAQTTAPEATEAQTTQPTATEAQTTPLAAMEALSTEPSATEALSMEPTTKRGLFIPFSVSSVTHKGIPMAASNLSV

T5: Biotin sY46 PSGL-1(42-62) peptide (human, sulfotyrosine at Y46; C-terminal Lys-biotin)
T5 peptide: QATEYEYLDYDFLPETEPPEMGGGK

T6: PSGL-1(42-62) N-terminal peptide, sulfation state not told at the place (human, not fully specified; sulfation of Y46, Y48, Y51 not stated for these table columns)
T6 peptide: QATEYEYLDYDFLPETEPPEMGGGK

T7: Cynomolgus PSGL-1(ECD)-HIS (cynomolgus macaque)
T7 construct: also called Cyno PSGL1-His
T7 chain: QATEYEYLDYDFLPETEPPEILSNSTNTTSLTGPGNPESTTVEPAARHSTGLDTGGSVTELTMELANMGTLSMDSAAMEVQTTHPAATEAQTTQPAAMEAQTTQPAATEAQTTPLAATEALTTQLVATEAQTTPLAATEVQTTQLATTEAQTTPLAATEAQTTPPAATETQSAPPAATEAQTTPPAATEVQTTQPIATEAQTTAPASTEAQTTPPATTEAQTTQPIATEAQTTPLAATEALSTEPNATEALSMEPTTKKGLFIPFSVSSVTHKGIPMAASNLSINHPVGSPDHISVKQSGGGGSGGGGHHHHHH


Legend:
[1] = target: T1, Biotin sY48 PSGL-1(42-62) peptide; assay: ELISA, plate-bound mAb captures biotin peptide
Procedure: (§1) Two ELISA methods were performed. One procedure detected mAb binding to its plate-immobilized target and the other measured the immobilized antibody's ability to capture biotinylated PSGL-1₄₂₋₆₂. […] The plate was incubated for 45 min at 37° C. Plates were washed 3 times with wash buffer (PBS containing 0.05% tween 20, pH 7.4) and a single concentration (2 to 500 nM) or serially diluted (0.002-100 nM) anti-PSGL-1 mAb was added (25 ul/well) in assay buffer into appropriate wells. The plate was incubated for 45 min at 37° C., washed 3 times, and an appropriate HRP-conjugated secondary antibody added (25 ul/well) (HRP goat anti-mouse or anti-human IgG). After 45 min incubation at 37° C., the plate was washed, and antibody bound to plate-immobilized target was determined at A450 nm using HRP substrate (3,3′,5,5′-etramethylbenzidine (TMB)). For each antibody, duplicate values were averaged and assay background was subtracted. Except for the following, ELISAs involving plate-immobilized mAb capturing of biotinylated PSGL-1₄₂₋₆₂ peptides was performed in the same manner as described above: 3 ug/mL/25 ul per well of mAb was coated directly onto microtiter plate wells; biotinylated unmodified or sulfotyrosine PSGL-1₄₂₋₆₂ was serially diluted (3 nM-3 uM) into appropriate wells, and antibody-bound peptide was detected using HRP-streptavidin (Jackson Immunoresearch, Cat. #016-030-084).

[2] = target: T2, Biotin Y46,48,51(SO3) PSGL-1(42-62) …; assay: ELISA, plate-bound mAb captures biotin peptide
Procedure: as §1

[3] = target: T3, Biotin sY51 PSGL-1(42-62) peptide; assay: ELISA, plate-bound mAb captures biotin peptide
Procedure: as §1

[4] = target: T1, Biotin sY48 PSGL-1(42-62) peptide; assay: capture ELISA; against 3 x sY peptide
Procedure: as §1

[5] = target: T2, Biotin Y46,48,51(SO3) PSGL-1(42-62) …; assay: capture ELISA; against 3 x sY peptide
Procedure: as §1

[6] = target: T3, Biotin sY51 PSGL-1(42-62) peptide; assay: capture ELISA; against 3 x sY peptide
Procedure: as §1

[7] = target: T4, Recombinant human PSGL-1(ECD)-hFc1 (R&D …); assay: ELISA, plate-bound target
Procedure: as §1

[8] = target: T2, Biotin Y46,48,51(SO3) PSGL-1(42-62) …; assay: ELISA, plate-bound target
Procedure: as §1

[9] = target: T2, Biotin Y46,48,51(SO3) PSGL-1(42-62) …; assay: capture ELISA; against parent 18F02
Procedure: (§2) A typical ELISA for N-terminal PSGL-1 reactive humanized mAbs binding to Y_{46,48,51}(SO₃) PSGL-1₍₄₂₋₆₂₎ involved coating high binding half-well plates (Corning Cat. #3690) with 3 ug/mL/25 ul per well of the mAbs or with an isotype hG4 control in PBS, pH 7.4, overnight at 4° C. […] Biotinylated Y_{46,48,51}(SO₃) PSGL-1₍₄₂₋₆₂₎ was added (25 ul per well) in duplicate at 2.8 uM in assay buffer (blocking buffer containing 0.05% tween 20) and serially diluted into test and control (just blocked) wells, and the plate incubated for 45 min at 37° C. The plate was washed ×3 and an appropriate HRP-conjugated streptavidin was added (25 ul per well; Jackson Immunoresearch, Cat. #016-030-084) and the plate was incubated for 45 min at 37° C. […] For each antibody, an EC50 value was determined from sigmoidal fitted peptide titration curve.

[10] = target: T2, Biotin Y46,48,51(SO3) PSGL-1(42-62) …; assay: ELISA, plate-bound mAb captures biotin 3 x sY peptide
Procedure: as §2

[11] = target: T5, Biotin sY46 PSGL-1(42-62) peptide; assay: ELISA, plate-bound mAb captures biotin peptide
Procedure: as §1

[12] = target: T6, PSGL-1(42-62) N-terminal peptide, …; assay: mAb binding to PSGL-1(42-62)
[13] = target: T7, Cynomolgus PSGL-1(ECD)-HIS; assay: ELISA, plate cyno PSGL-1(ECD)-HIS
Procedure: Antibody binding to plate-immobilized cyno PSGL-1(ECD) was determined either at one concentration (20 nM) or by generating full antibody binding curves (0.003-200 nM). A typical ELISA was performed by overnight coating at 4° C. with 3 ug/mL/25 ul per well of recombinant cyno PSGL-1(ECD) protein in PBS, pH 7.4, in high binding half-well plates (Corning Cat. #3690). […] Anti-PSGL-1 IgG in assay buffer (blocking buffer containing 0.05% tween 20) was added into test and control wells (20 nM/25 ul/well) and the plate incubated for 45 min at 37° C. […] The plate was incubated for 45 min at 37° C., and mAb bound to plate-immobilized target determined at A450 nm using HRP substrate (3,3′,5,5′-tetramethylbenzidine (TMB)). For each antibody, duplicate values were averaged and assay background subtracted.

EC50 [1] [nM]	EC50 [2] [nM]	EC50 [3] [nM]	EC50 [7] [nM]	EC50 [8] [nM]	N-term peptide EC50 (normalized) [9] [fold]	EC50 [10] [nM]	Binder	other results
~600	93	~600	~0.1	0.44			PSG3 (antibody, V domains shown, Control anti-PSGL-1 mAb; only variable domains given) VH: QVQLVQSGAEVKKPGSSVRVSCKASGGSFSSYGIHWVQQAPGQGLEWMGRIIPVLRIRNYAQKFHDRVTIDADTSTGTAYMELSSLTSDDTAVYYCAGSRQGVAPTGYWGQGTMVTVSS VL: QAVLTQPSSLSASPGASASLTCNLRSGIDVGTYRIYWYQQKPGSPPQYLLRYKSDSDKQQGSGVPSRFSGTKDASANAGILLISGLQSEDEADYYCMIWHSNGWVFGGGTKLTVL	EC50/EC50 3x(SO3)Y [4]: ~6 fold; EC50/EC50 3x(SO3)Y [5]: 1 fold; EC50/EC50 3x(SO3)Y [6]: ~6 fold
					2.3	160	18F02.001 (antibody, IgG4, V domains shown, Humanised) VH: QVQLVQSGAEVKKPGSSVKVSCKASGYTFTSYWMHWVRQAPGQGLEWMGMIHPNSGRTNYNEKFKSRVTITVDKSTSTAYMELSSLRSEDTAVYYCARSDYWGQGTLVTVSS VL: DIVMTQTPLSLSVTPGQPASISCRSSKSLLHSDGITYLYWFLQKPGQSPQLLIYRMSNLASGVPDRFSGSGSGTDFTLKISRVEAEDVGVYYCAQMLEFPRTFGQGTKLEIK	
					2.1	150	18F02.002 (antibody, IgG4, V domains shown, Humanised) VH: EVQLVQSGAEVKKPGSSVKVSCKASGYTFTSYWMHWVRQAPGQGLEWMGMIHPNSGRTNYNEKFKSRVTITVDKSTSTAYMELSSLRSEDTAVYYCARSDYWGQGTLVTVSS VL: DIVMTQTPLSLSVTPGQPASISCRSSKSLLHSDGITYLYWFLQKPGQSPQLLIYRMSNLASGVPDRFSGSGSGTDFTLKISRVEAEDVGVYYCAQMLEFPRTFGQGTKLEIK	
8.34	6.2	129	0.02	0.07			SELK1 (antibody, V domains shown, Control anti-PSGL-1 mAb; only variable domains given) VH: QVQLQQSGPGLVKPSQTLSLTCAISGDSVSSNIAAWHWIRLSPSRGLEWLGRTYYRRSKWNYDYALSVKSRININPDTSKNLFSLQLNSVTPEDTAVYYCTRGGGRAHSAWGQGTLVTVSS VL: EIVLTQSPGTLSVSPGERATLSCRASQSVSRSHLAWYQQKPGQAPRLLIFGASSRATGIPDRFSGSGSGTDFTLTISRLEPEDFAVYYCQQYGRPGVTFGQGTKVEIK	EC50 [11]: 167 nM
							20H10 (antibody, V domains shown, Mouse hybridoma mAb; only variable domains given) VH: QVQLQQPGTELVKPGASVKLSCKASGYTFTNFWMHWVRQRPGQGLEWIGKINPGNGGTRYNEKFKTKATLTVDRSSSTACIQLSSLTSEDSAVYYCTSTNWDPYFDYWGQGTTLTVSS VL: not shown	binding result [12]: no binding; binding result [13]: no binding
